Values quoted from earlier work, collected in publication PMC4379523.

Biological target: ribosomal protein L3 N-terminal peptide (L3Δ21) 1-21 (Saccharomyces cerevisiae) (UniProt P14126)
Assay: SPR

UniProt P14126, sequence (P14126 1-21, stated change not applied): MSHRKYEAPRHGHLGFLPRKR

Pokeweed antiviral protein (PAP) (from UniProt P10297)
Kd: 24.8 nM
